Experiments:
[1] = biological target: L1-10_NLuc antigen (Strep-MBP-L1-10-Nluc) (human); test: luminescence ELISA, M22 directly coated, L1-10_NLuc titrated
[2] = biological target: L1-10_NLuc antigen (Strep-MBP-L1-10-Nluc) (human); test: competition ELISA, soluble M22 titrated with L1-10_NLuc at 1 µg/mL; competitor M22 coated on the plate
[3] = biological target: L1-10_NLuc antigen (Strep-MBP-L1-10-Nluc) (human); test: competition ELISA, soluble M22 titrated with L1-10_NLuc at 0.1 µg/mL; competitor M22 coated on the plate
[4] = biological target: L1-10_NLuc antigen (Strep-MBP-L1-10-Nluc) (human); test: competition ELISA, soluble M22 titrated with L1-10_NLuc at 0.2 µg/mL; competitor M22 coated on the plate

RLU [1]: < 7e+06 RLU
IC50 [2]: 0.03 µg/mL
IC50 [3]: 0.008 µg/mL
IC50 [4]: 0.012 µg/mL
Substance: M22, unlabeled (thyroid-stimulating TSHR-specific monoclonal antibody)
